System: plasma proteins
Assay: Plasma proteins modulated between baseline and day 28 in responders (CR, VGPR, PR; n = 19), Example 6 (Table 13)
Type: in vivo, human
Conditions: plasma protein (OLINK NPX); responders (CR, VGPR, PR; n = 19); itacitinib 200 mg or 300 mg QD with corticosteroids; day 28 vs baseline
Procedure, shortened: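 Plasma at baseline/screening and day 28 profiled for >1000 proteins by OLINK proximity extension assay, reported as NPX (log2). Steroid-naive and steroid-refractory patients pooled. Paired and unpaired t tests, ANOVA and Pearson correlation applied; significance at P<0.05.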

B1: VEGFC (protein, UniProt P49767 112-227, looked up)
Vascular endothelial growth …: AHYNTEILKSIDNEWRKTQCMPREVCIDVGKEFGVATNTFFKPPCVSVYRCGGCCNSEGLQCMNTSTSYLSKTLFEITVPLSQGPKPVTISFANHTSCRCMSKLDVYRQVHSIIRR
  Fold Change, Decreased Expression from Baseline to Day 28: −1.1727

B2: LYVE1 (protein, UniProt Q9Y5Y7 20-322, looked up)
Lymphatic vessel endothelial …: LVQGSLRAEELSIQVSCRIMGITLVSKKANQQLNFTEAKEACRLLGLSLAGKDQVETALKASFETCSYGWVGDGFVVISRISPNPKCGKNGVGVLIWKVPVSRQFAAYCYNSSDTWTNSCIPEIITTKDPIFNTQTATQTTEFIVSDSTYSVASPYSTIPAPTTTPPAPASTSIPRRKKLICVTEVFMETSTMSTETEPFVENKAAFKNEAAGFGGVPTALLVLALLFFGAAAGLGFCYVKRYVKAFPFTNKNQQKEMIETKVVKEEKANDSNPNEESKKTDKNPEESKSPSKTTVRCLEAEV
  Fold Change, Decreased Expression from Baseline to Day 28: −1.227

B3: FADD (protein, UniProt Q13158 1-208, looked up)
FAS-associated death domain …: MDPFLVLLHSVSSSLSSSELTELKFLCLGRVGKRKLERVQSGLDLFSMLLEQNDLEPGHTELLRELLASLRRHDLLRRVDDFEAGAAAGAAPGEEDLCAAFNVICDNVGKDWRRLARQLKVSDTKIDSIEDRYPRNLTERVRESLRIWKNTEKENATVAHLVGALRSCQMNLVADLVQEVQQARDLQNRSGAMSPMSWNSDASTSEAS
  Fold Change, Decreased Expression from Baseline to Day 28: −1.546

B4: FCRL1 (protein, UniProt Q96LA6 17-429, looked up)
Fc receptor-like protein 1: AELFLIASPSHPTEGSPVTLTCKMPFLQSSDAQFQFCFFRDTRALGPGWSSSPKLQIAAMWKEDTGSYWCEAQTMASKVLRSRRSQINVHRVPVADVSLETQPPGGQVMEGDRLVLICSVAMGTGDITFLWYKGAVGLNLQSKTQRSLTAEYEIPSVRESDAEQYYCVAENGYGPSPSGLVSITVRIPVSRPILMLRAPRAQAAVEDVLELHCEALRGSPPILYWFYHEDITLGSRSAPSGGGASFNLSLTEEHSGNYSCEANNGLGAQRSEAVTLNFTVPTGARSNHLTSGVIEGLLSTLGPATVALLFCYGLKRKIGRRSARDPLRSLPSPLPQEFTYLNSPTPGQLQPIYENVNVVSGDEVYSLAYYNQPEQESVAAETLGTHMEDKVSLDIYSRLRKANITDVDYEDAM
  Fold Change, Decreased Expression from Baseline to Day 28: −1.3733

B5: EGF (protein, UniProt P01133 23-1207, looked up)
Pro-epidermal growth factor: PQHWSCPEGTLAGNGNSTCVGPAPFLIFSHGNSIFRIDTEGTNYEQLVVDAGVSVIMDFHYNEKRIYWVDLERQLLQRVFLNGSRQERVCNIEKNVSGMAINWINEEVIWSNQQEGIITVTDMKGNNSHILLSALKYPANVAVDPVERFIFWSSEVAGSLYRADLDGVGVKALLETSEKITAVSLDVLDKRLFWIQYNREGSNSLICSCDYDGGSVHISKHPTQHNLFAMSLFGDRIFYSTWKMKTIWIANKHTGKDMVRINLHSSFVPLGELKVVHPLAQPKAEDDTWEPEQKLCKLRKGNCSSTVCGQDLQSHLCMCAEGYALSRDRKYCEDVNECAFWNHGCTLGCKNTPGSYYCTCPVGFVLLPDGKRCHQLVSCPRNVSECSHDCVLTSEGPLCFCPEGSVLERDGKTCSGCSSPDNGGCSQLCVPLSPVSWECDCFPGYDLQLDEKSCAASGPQPFLLFANSQDIRHMHFDGTDYGTLLSQQMGMVYALDHDPVENKIYFAHTALKWIERANMDGSQRERLIEEGVDVPEGLAVDWIGRRFYWTDRGKSLIGRSDLNGKRSKIITKENISQPRGIAVHPMAKRLFWTDTGINPRIESSSLQGLGRLVIASSDLIWPSGITIDFLTDKLYWCDAKQSVIEMANLDGSKRRRLTQNDVGHPFAVAVFEDYVWFSDWAMPSVMRVNKRTGKDRVRLQGSMLKPSSLVVVHPLAKPGADPCLYQNGGCEHICKKRLGTAWCSCREGFMKASDGKTCLALDGHQLLAGGEVDLKNQVTPLDILSKTRVSEDNITESQHMLVAEIMVSDQDDCAPVGCSMYARCISEGEDATCQCLKGFAGDGKLCSDIDECEMGVPVCPPASSKCINTEGGYVCRCSEGYQGDGIHCLDIDECQLGEHSCGENASCTNTEGGYTCMCAGRLSEPGLICPDSTPPPHLREDDHHYSVRNSDSECPLSHDGYCLHDGVCMYIEALDKYACNCVVGYIGERCQYRDLKWWELRHAGHGQQQKVIVVAVCVVVLVMLLLLSLWGAHYYRTQKLLSKNPKNPYEESSRDVRSRRPADTEDGMSSCPQPWFVVIKEHQDLKNGGQPVAGEDGQAADGSMQPTSWRQEPQLCGMGTEQGCWIPVSSDKGSCPQVMERSFHMPSYGTQTLEGGVEKPHSLLSANPLWQQRALDPPHQMELTQ
modifications: Pro-epidermal growth factor
  Fold Change, Decreased Expression from Baseline to Day 28: −1.7729

B6: GZMH (protein, UniProt P20718 21-246, looked up)
Granzyme H: IIGGHEAKPHSRPYMAFVQFLQEKSRKRCGGILVRKDFVLTAAHCQGSSINVTLGAHNIKEQERTQQFIPVKRPIPHPAYNPKNFSNDIMLLQLERKAKWTTAVRPLRLPSSKAQVKPGQLCSVAGWGYVSMSTLATTLQEVLLTVQKDCQCERLFHGNYSRATEICVGDPKKTQTGFKGDSGGPLVCKDVAQGILSYGNKKGTPPGVYIKVSHFLPWIKRTMKRL
  Fold Change, Decreased Expression from Baseline to Day 28: −1.494

B7: CLEC4G (protein, UniProt Q6UXB4 1-293, looked up)
C-type lectin domain family 4 …: MDTTRYSKWGGSSEEVPGGPWGRWVHWSRRPLFLALAVLVTTVLWAVILSILLSKASTERAALLDGHDLLRTNASKQTAALGALKEEVGDCHSCCSGTQAQLQTTRAELGEAQAKLMEQESALRELRERVTQGLAEAGRGREDVRTELFRALEAVRLQNNSCEPCPTSWLSFEGSCYFFSVPKTTWAAAQDHCADASAHLVIVGGLDEQGFLTRNTRGRGYWLGLRAVRHLGKVQGYQWVDGVSLSFSHWNQGEPNDAWGRENCVMMLHTGLWNDAPCDSEKDGWICEKRHNC
  Fold Change, Decreased Expression from Baseline to Day 28: −1.1865

B8: DNER (protein, UniProt Q8NFT8 35-737, looked up)
Delta and Notch-like …: NPVPAAPLSAPGPCAAQPCRNGGVCTSRPEPDPQHPAPAGEPGYSCTCPAGISGANCQLVADPCASNPCHHGNCSSSSSSSSDGYLCICNEGYEGPNCEQALPSLPATGWTESMAPRQLQPVPATQEPDKILPRSQATVTLPTWQPKTGQKVVEMKWDQVEVIPDIACGNASSNSSAGGRLVSFEVPQNTSVKIRQDATASLILLWKVTATGFQQCSLIDGRSVTPLQASGGLVLLEEMLALGNNHFIGFVNDSVTKSIVALRLTLVVKVSTCVPGESHANDLECSGKGKCTTKPSEATFSCTCEEQYVGTFCEEYDACQRKPCQNNASCIDANEKQDGSNFTCVCLPGYTGELCQSKIDYCILDPCRNGATCISSLSGFTCQCPEGYFGSACEEKVDPCASSPCQNNGTCYVDGVHFTCNCSPGFTGPTCAQLIDFCALSPCAHGTCRSVGTSYKCLCDPGYHGLYCEEEYNECLSAPCLNAATCRDLVNGYECVCLAEYKGTHCELYKDPCANVSCLNGATCDSDGLNGTCICAPGFTGEECDIDINECDSNPCHHGGSCLDQPNGYNCHCPHGWVGANCEIHLQWKSGHMAESLTNMPRHSLYIIIGALCVAFILMLIILIVGICRISRIEYQGSSRPAYEEFYNCRSIDSEFSNAIASIRHARFGKKSRPAMYDVSPIAYEDYSPDDKPLVTLIKTKDL
  Fold Change, Increased Expression from Baseline to Day 28: 1.2957

B9: PRDX3 (protein, UniProt P30048 62-256, looked up)
Thioredoxin-dependent …: APAVTQHAPYFKGTAVVNGEFKDLSLDDFKGKYLVLFFYPLDFTFVCPTEIVAFSDKANEFHDVNCEVVAVSVDSHFSHLAWINTPRKNGGLGHMNIALLSDLTKQISRDYGVLLEGSGLALRGLFIIDPNGVIKHLSVNDLPVGRSVEETLRLVKAFQYVETHGEVCPANWTPDSPTIKPSPAASKEYFQKVNQ
  Fold Change, Decreased Expression from Baseline to Day 28: −1.199

B10: CEACAM8 (protein, UniProt P31997 35-320, looked up)
Cell adhesion molecule CEACAM8: QLTIEAVPSNAAEGKEVLLLVHNLPQDPRGYNWYKGETVDANRRIIGYVISNQQITPGPAYSNRETIYPNASLLMRNVTRNDTGSYTLQVIKLNLMSEEVTGQFSVHPETPKPSISSNNSNPVEDKDAVAFTCEPETQNTTYLWWVNGQSLPVSPRLQLSNGNRTLTLLSVTRNDVGPYECEIQNPASANFSDPVTLNVLYGPDAPTISPSDTYYHAGVNLNLSCHAASNPPSQYSWSVNGTFQQYTQKLFIPNITTKNSGSYACHTTNSATGRNRTTVRMITVSD
  Fold Change, Decreased Expression from Baseline to Day 28: −1.6177

B11: SEMA7A (protein, UniProt O75326 45-648, looked up)
Semaphorin-7A: QGHLRSGPRIFAVWKGHVGQDRVDFGQTEPHTVLFHEPGSSSVWVGGRGKVYLFDFPEGKNASVRTVNIGSTKGSCLDKRDCENYITLLERRSEGLLACGTNARHPSCWNLVNGTVVPLGEMRGYAPFSPDENSLVLFEGDEVYSTIRKQEYNGKIPRFRRIRGESELYTSDTVMQNPQFIKATIVHQDQAYDDKIYYFFREDNPDKNPEAPLNVSRVAQLCRGDQGGESSLSVSKWNTFLKAMLVCSDAATNKNFNRLQDVFLLPDPSGQWRDTRVYGVFSNPWNYSAVCVYSLGDIDKVFRTSSLKGYHSSLPNPRPGKCLPDQQPIPTETFQVADRHPEVAQRVEPMGPLKTPLFHSKYHYQKVAVHRMQASHGETFHVLYLTTDRGTIHKVVEPGEQEHSFAFNIMEIQPFRRAAAIQTMSLDAERRKLYVSSQWEVSQVPLDLCEVYGGGCHGCLMSRDPYCGWDQGRCISIYSSERSVLQSINPAEPHKECPNPKPDKAPLQKVSLAPNSRYYLSCPMESRHATYSWRHKENVEQSCEPGHQSPNCILFIENLTAQQYGHYFCEAQEGSYFREAQHWQLLPEDGIMAEHLLGHACALA
  Fold Change, Decreased Expression from Baseline to Day 28: −1.1335

B12: FCRL6 (protein, UniProt Q6DN72 20-434, looked up)
Fc receptor-like protein 6: LYLQAWPNPVFEGDALTLRCQGWKNTPLSQVKFYRDGKFLHFSKENQTLSMGAATVQSRGQYSCSGQVMYIPQTFTQTSETAMVQVQELFPPPVLSAIPSPEPREGSLVTLRCQTKLHPLRSALRLLFSFHKDGHTLQDRGPHPELCIPGAKEGDSGLYWCEVAPEGGQVQKQSPQLEVRVQAPVSRPVLTLHHGPADPAVGDMVQLLCEAQRGSPPILYSFYLDEKIVGNHSAPCGGTTSLLFPVKSEQDAGNYSCEAENSVSRERSEPKKLSLKGSQVLFTPASNWLVPWLPASLLGLMVIAAALLVYVRSWRKAGPLPSQIPPTAPGGEQCPLYANVHHQKGKDEGVVYSVVHRTSKRSEARSAEFTVGRKDSSIICAEVRCLQPSEVSSTEVNMRSRTLQEPLSDCEEVLC
  Fold Change, Decreased Expression from Baseline to Day 28: −1.3556

B13: FASLG (protein, UniProt P48023 130-281, looked up)
Tumor necrosis factor ligand …: QIGHPSPPPEKKELRKVAHLTGKSNSRSMPLEWEDTYGIVLLSGVKYKKGGLVINETGLYFVYSKVYFRGQSCNNLPLSHKVYMRNSKYPQDLVMMEGKMMSYCTTGQMWARSSYLGAVFNLTSADHLYVNVSELSLVNFEESQTFFGLYKL
  Fold Change, Decreased Expression from Baseline to Day 28: −1.3614
